Reference: patent US20240182540A1

Molecular target: EGFRvIII variant of EGFR, expressed on CT2AvIII cells (UniProt P00533)
Assay: cell-based or functional assay

Question: How did the percent survival of tumor cells, in vitro cytotoxicity against a 70:30 mixture of CT2A:CT2AvIII, 24 h co-culture turn out when “third-generation EGFRvIII-targeting CAR (anti-EGFRvIII scFv clone 139 fused to CD8 hinge and TM, CD28, 4-1BB and CD3zeta), on transduced mouse T cells” was run?
Answer: 75%
